From US20080279856A1, “Inhibition of Bradykinin Release” (Novo Nordisk Pharmaceuticals, Inc., priority 1999, published 2008)
Entries after “also recorded” stand apart in the source; their conditions may differ.

Assays:
[1] = system: HBP-induced increase in EC permeability; test: Inhibition of HBP-induced increase in EC permeability; format: cell-based, human, bovine; conditions: peptide 3 μg/ml for 30 min, wash; HBP 75 μg/ml; N=6
Excerpt: Alternatively, HBP antagonists may be detected by culturing endothelial cells in the presence of HBP and in the presence and absence of a substance suspected of being an antagonist. In a specific embodiment, the antagonist is a monoclonal antibody that binds to at least one epitope of HBP, preferably human HBP, wherein said epitope binds to prekallikrein-H-kininogen complex and activates release of bradykinin. In a preferred embodiment, the monoclonal antibody is a human monoclonal antibody. In one embodiment, the antibody and HBP are preincubated together before incubating with endothelial cells for about 10 minutes at 37° C. The effect of the substance on the permeability of endothelial cells is determined by measuring transendothelial electrical resistance or determining albumin clearance as described in the Examples, infra. A decrease in permeability would indicate that the substance does act as an HBP antagonist.
For measurement of electrical resistance across the EC monolayer, the filter insert is transferred to a resistance measurement chamber (ENDOHM-12; World Precision Instruments, Sarasota, Fla., USA) modified so as to assure exact positioning of the electrodes in relation to each other and to the filter insert during repeated measurements. The chamber (lower compartment) and the filter insert (upper compartment) are filled with 2 ml and 400 μl culture medium, respectively. […] Direct readings of the electrical resistance are given by an ohmmeter (EVOM; World Precision Instruments, Sarasota, Fla., USA) connected to the electrodes of the resistance chamber. The electrical resistance of individual EC monolayers is obtained by subtracting the resistance of the corresponding naked filter coated with Biomatrix as measured prior to seeding of the endothelial cells.
Evans blue dye-conjugated albumin (EBA) is used as a marker for macromolecular permeability of the EC monolayers. […] In experiments where albumin permeability is analyzed, the culture medium in the upper compartment is exchanged for medium containing EBA. […]

[2] = system: bradykinin-induced increase in EC permeability; test: Inhibition of bradykinin-induced increase in EC permeability; format: cell-based, human, bovine; conditions: peptide 3 μg/ml for 30 min; bradykinin 100 nM at 15 min after HBP
Experimental: For measurement of electrical resistance across the EC monolayer, the filter insert is transferred to a resistance measurement chamber (ENDOHM-12; World Precision Instruments, Sarasota, Fla., USA) modified so as to assure exact positioning of the electrodes in relation to each other and to the filter insert during repeated measurements. The chamber (lower compartment) and the filter insert (upper compartment) are filled with 2 ml and 400 μl culture medium, respectively. All measurements are made at 37° C. with the equipment placed in a cell culture incubator. Direct readings of the electrical resistance are given by an ohmmeter (EVOM; World Precision Instruments, Sarasota, Fla., USA) connected to the electrodes of the resistance chamber. The electrical resistance of individual EC monolayers is obtained by subtracting the resistance of the corresponding naked filter coated with Biomatrix as measured prior to seeding of the endothelial cells.
Before transferring the filter inserts to the resistance measurement chamber (kept at 37° C.), the medium in the insert and in the chamber is replaced with fresh culture medium (37° C.) supplemented with 10 mM Hepes. HBP (25-100 μg/ml) or PMN secretion product is added either to the upper or the lower compartment and change in transendothelial electrical resistance is measured every minute until a plateau phase is reached, and thereafter at 5-min intervals. In separate experiments, PMNs (2×10^6) preincubated with mAb IB4 (10 μg/ml) are added to the upper compartment (PMN:EC ratio=10:1) and allowed to sediment for 10 min. Activation of the PMNs is induced through antibody crosslinking of leukocytic CD18 by addition of goat anti-mouse IgG F(ab′)2 diluted 1:20. In experiments where albumin permeability across the EC monolayer is studied, the medium in the insert contained EBA. During the experiment, the filter insert is moved at 5-10 min intervals to new wells containing fresh medium. All incubations are made at 37° C. After the experiment, the medium in the lower wells is aspirated and analyzed for EBA content.

endothelial cells = test: EC response to CD18 cross-linking in PMNs (Ca2+ and TEER); format: cell-based, human, bovine; conditions: EC pre-treated
Experimental: Human umbilical vein endothelial cells (HUVEC) and bovine aorta endothelial cells (BAEC) are isolated and cultured as previously described (Gautam et al. 1998, Brit. J. Pharm. 125:1109-1114). HUVEC or BAEC in the first to fifth passages are detached by brief (2 min) trypsin-EDTA treatment (0.25% trypsin/0.01% EDTA) and replated onto either 0.2 μm pore size Anopore inorganic membrane or 3.0 μm pore size polycarbonate filters (Tissue Culture inserts, 10 mm; NUNC, Roskilde, Denmark). In order to promote cellular differentiation and enhance attachment of endothelial cells (ECs), the filters are pretreated with 50 μl Biomatrix 1 (167 μg/ml) and air-dried. […] The EC are grown to confluent monolayers, as assessed by daily microscopic observation and measurement of the electrical resistance across the monolayer (Gautam et al 1998, Brit. J. Pharm. 125:1109-1114).
Two different approaches are used for assessment of stimulation-induced changes in EC permeability. […] Electrical resistance across the EC monolayer is measured at 37° C. with electrodes in each compartment exactly positioned in relation to each other and to the monolayer. The electrical resistance of individual EC monolayers is obtained by subtracting the resistance of the corresponding naked filter coated with Biomatrix as measured prior to seeding of the endothelial cells. […]

125I-BPTI = 125I-BPTI binding to HBP, scintillation proximity assay; set-up: species or system bovine
Experimental: (§1) The relative affinities of HBP and the mutants are determined by performing competition studies with […] of unlabeled BPTI.

[3] = 3H-LPS binding to HBP, scintillation proximity assay
Experimental: The affinity for lipopolysaccharide (3H-LPS) is measured by scintillation proximity assay technology (SPA) as described (Linde, V., Bjørn, S., Kastrup, J. S., and Flodgaard, H., 2000, Biotechniques 28:218-222). All samples are repeated in triplicates.

human monocytes = test: LPS induced IL-6 release from monocytes; format: cell-based; conditions: 24 hours, serum-free medium
Excerpt: Human monocytes are isolated and treated as described (Rasmussen, P. B., Bjørn, S., Hastrup, S., Nielsen, P. F., Norris, K., Thim, L., Wiberg, F. C., and Flodgaard, H. (1996) FEBS Lett. 390: 109-112), with the exception that 1% non-essential amino acids is excluded from the medium.

[4] = 125I-BPTI binding to HBP, scintillation proximity assay; set-up: species or system bovine; conditions: competition with unlabeled BPTI; read-out: apparent IC50 of 125I-BPTI binding
Experimental: as §1

aprotinin = aprotinin (Bos taurus, UniProt P00974); test: Ability of HBP variants to bind aprotinin; format: binding

Row | binding of BPTI (125I-BPTI) | lipid A/LPS binding property [3] | Molecule | effect on HBP-induced increase in EC permeability [1] | effect on bradykinin-induced permeability change [2] | stimulation of LPS induced cytokine-release (IL-6) (human monocytes) | further results
1 | – | – | HKHGHGHHKKNKGKKNGKH (listed as Homo sapiens) [HKH20] | prevented | but not the permeability change induced by subsequent administration of bradykinin | – | –
2 | – | – | CC(=O)OCOC(=O)CN(CC(=O)OCOC(C)=O)c1ccccc1OCCOc1ccccc1N(CC(=O)OCOC(C)=O)CC(=O)OCOC(C)=O [BAPTA AM] | – | – | – | effect on change in TEER (endothelial cells): completely inhibited; effect on rise in EC free intracellular Ca2+ (endothelial cells): completely inhibited
3 | – | – | SDDDWIPDIQTDPNGLSFNPISDFPDTTSPK (listed as Homo sapiens) [SDD31] | largely prevented | persisted | – | –
4 | eliminated; also recorded: no binding | comparable to that of native HBP | [G175Q]HBP: Mutant of human HBP with G175Q in the BPTI binding site (protein) IVGGRKARPRQFPFLASIQNQGRHFCGGALIHARFVMTAASCFQSQNPGVSTVVLGAYDLRRRERQSRQTFSISSMSENGYDPQQNLNDLMLLQLDREANLTSSVTILPLPLQNATVEAGTRCQVAGWGSQRSGGRLSRFPRFVNVTVTPEDQCRPNNVCTGVLTRRGGICNGDQGTPLVCEGLAHGVASFSLGPCGRGPDFFTRVALFRDWIDGVLNNPGP | – | – | only a very limited stimulation | –
5 | do not affect; also recorded: binds BPTI | do not affect | [R23S,F25E]HBP: Mutant of human HBP with R23S and F25E in the putative lipid A/LPS binding site (protein) IVGGRKARPRQFPFLASIQNQGSHECGGALIHARFVMTAASCFQSQNPGVSTVVLGAYDLRRRERQSRQTFSISSMSENGYDPQQNLNDLMLLQLDREANLTSSVTILPLPLQNATVEAGTRCQVAGWGSQRSGGRLSRFPRFVNVTVTPEDQCRPNNVCTGVLTRRGGICNGDGGTPLVCEGLAHGVASFSLGPCGRGPDFFTRVALFRDWIDGVLNNPGP | – | – | do not affect | IC50 [4]: ~7 nM; binding capacity for 125I-BPTI (125I-BPTI): larger binding capacity as compared to HBP
6 | – | – | porcine HBP: Porcine heparin-binding protein, very homologous to human HBP, unable to bind aprotinin (protein) IVGGRRAQPQEFPFLASIQKQGRPFCAGALVHPRFVLTAASCFRGKNSGSASVVLGAYDLRQQEQSRQTFSIRSISQNGYDPRQNLNDVLLLQLDREARLTPSVALVPLPPQNATVEAGTNCQVAGWGTQRLRRLFSRFPRVLNVTVTSNPCLPRDMCIGVFSRRGRISQGDRGTPLVCNGLAQGVASFLRRRFRRSSGFFTRVALFRNWIDSVLNNPP | – | – | – | ability to bind aprotinin (aprotinin): unable to bind aprotinin
